The target in assay [1] is T1, proprotein convertase subtilisin/kexin type 9 (PCSK9) (human, UniProt Q8NBP7 31-152).
T1 construct: domain: prodomain; Recombinant; tag not written as a part; also called rec.PCSK9; His-PCSK9
Put plainly: phage ELISA.

For assay [2], the target named is T2, His-tagged, full-length PCSK9 (human, UniProt Q8NBP7 31-152; Q8NBP7 153-692).
T2 construct: Target protein of the PCSK9/EGF(A) TR-FRET assay (10 nM); also called His-PCSK9
The assay can be described thus: TR-FRET competition, His-PCSK9; competitor EGF(A)-Fc.

T2 sequence (Q8NBP7 31-152, chain 1 of 2): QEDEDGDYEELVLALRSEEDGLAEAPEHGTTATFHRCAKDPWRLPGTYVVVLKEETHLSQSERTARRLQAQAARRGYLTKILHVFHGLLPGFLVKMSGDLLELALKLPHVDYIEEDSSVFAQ
T2 sequence (Q8NBP7 other isoform, or with tags, fused parts or gaps, chain 2 of 2): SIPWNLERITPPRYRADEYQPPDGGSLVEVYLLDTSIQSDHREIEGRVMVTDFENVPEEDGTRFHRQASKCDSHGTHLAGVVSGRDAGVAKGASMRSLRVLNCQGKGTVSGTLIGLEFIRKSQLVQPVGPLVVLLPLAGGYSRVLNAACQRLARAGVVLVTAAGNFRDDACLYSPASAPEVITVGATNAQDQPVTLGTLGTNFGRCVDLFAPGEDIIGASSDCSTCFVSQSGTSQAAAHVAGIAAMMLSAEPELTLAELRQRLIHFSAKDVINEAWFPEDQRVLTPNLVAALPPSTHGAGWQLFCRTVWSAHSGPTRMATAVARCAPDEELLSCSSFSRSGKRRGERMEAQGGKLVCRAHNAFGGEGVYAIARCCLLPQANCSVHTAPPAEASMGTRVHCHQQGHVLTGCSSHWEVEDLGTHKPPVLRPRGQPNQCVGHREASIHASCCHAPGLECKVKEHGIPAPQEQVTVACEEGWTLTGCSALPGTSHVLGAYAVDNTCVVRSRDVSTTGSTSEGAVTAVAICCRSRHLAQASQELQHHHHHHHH
T1 sequence (Q8NBP7 31-152 limits assumed, chain 1 of 2): as the sequence (Q8NBP7 31-152, chain 1 of 2) above
T1 sequence (Q8NBP7 153-692 limits assumed, chain 2 of 2): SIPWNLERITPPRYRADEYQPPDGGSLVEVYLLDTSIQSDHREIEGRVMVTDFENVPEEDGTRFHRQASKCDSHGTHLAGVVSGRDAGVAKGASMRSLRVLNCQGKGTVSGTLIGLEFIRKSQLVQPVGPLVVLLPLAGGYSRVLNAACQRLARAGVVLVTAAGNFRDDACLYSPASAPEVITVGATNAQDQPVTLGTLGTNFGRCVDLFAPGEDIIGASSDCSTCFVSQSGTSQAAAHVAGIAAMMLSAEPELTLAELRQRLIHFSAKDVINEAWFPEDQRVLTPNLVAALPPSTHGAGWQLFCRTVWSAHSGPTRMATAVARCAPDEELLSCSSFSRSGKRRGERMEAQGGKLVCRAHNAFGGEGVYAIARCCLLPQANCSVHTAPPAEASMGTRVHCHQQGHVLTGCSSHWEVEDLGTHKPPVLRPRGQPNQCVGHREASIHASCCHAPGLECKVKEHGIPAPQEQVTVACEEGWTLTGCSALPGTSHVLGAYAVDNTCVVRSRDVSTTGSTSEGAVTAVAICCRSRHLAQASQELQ

B1: Phage-displayed Pep2-8 (on p8) (peptide)
chain: TVFTSWEEYLDWV
notes: Peptide fused to the N-terminus of p8 on M13 phage; also called phage displaying Pep2-8; not shown: M13 major coat protein p8
Turning to B1, the binding result in assay [1] is “binds”.
Ac-SGDLMPWNLVRIGLLR-NH2 [Compound 122] had a half-maximal inhibitory concentration (IC50) in assay [2] of at least 50 µM.

Source of the values: US20190177366A1 (published 2019).
